target: T1, Recombinant human Fc-tagged extracellular domain of LILRB2 (human, UniProt Q8N423 22-460); experiment: SPR, Biacore X100; LILRB2-Fc amine-coupled to CM5 chip, antibody injected at 3.7-300 nM
T1 construct: extracellular domain; Bought from R&D Systems; also called LILRB2-Fc; not shown: Fc tag
Protocol: Dissociation constants (Kd) for mouse anti-human LILRB1 and LIRB2 antibodies were determined using a Biacore X100 surface plasmon resonance instrument (Cytivia). Recombinant human Fc-tagged extracellular domains of LILRB1 or LILRB2 (LILRB1-Fc or LILRB2-Fc; R&D Systems) were immobilized on a Biacore CM5 biosensor chip by amine coupling at a density of 40-50 relative units (RU). Purified mouse monoclonal antibodies were injected over the biosensor in a concentration series of 3.7, 11, 33, 100, and 300 nM in HBS-EP buffer (10 mM HEPS pH 7.4, […], 3 mM EDTA, 0.005% v/v Surfactant P20) at a flow rate of 50 μL/min. Regeneration of the chip was achieved by a 30 s injection of 10 mM glycine-HCl, pH 1.7. Affinity parameters were determined by fitting response data using the accompanying Biacore X100 analysis software.

T1 sequence (Q8N423 22-460): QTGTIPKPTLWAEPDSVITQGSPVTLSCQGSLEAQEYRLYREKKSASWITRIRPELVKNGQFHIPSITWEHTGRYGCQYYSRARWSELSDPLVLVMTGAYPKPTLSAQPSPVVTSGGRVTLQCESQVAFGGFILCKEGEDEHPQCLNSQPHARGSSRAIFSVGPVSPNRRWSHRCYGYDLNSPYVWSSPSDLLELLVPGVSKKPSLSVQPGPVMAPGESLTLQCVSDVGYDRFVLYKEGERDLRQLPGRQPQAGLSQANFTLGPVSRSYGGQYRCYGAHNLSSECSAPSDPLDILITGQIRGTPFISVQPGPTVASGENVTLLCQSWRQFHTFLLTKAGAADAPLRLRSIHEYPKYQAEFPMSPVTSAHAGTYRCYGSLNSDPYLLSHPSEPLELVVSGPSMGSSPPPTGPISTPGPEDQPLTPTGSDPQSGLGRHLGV

Binder	-log(Kd)
6B3 (antibody, V domains shown, Entries are printed with leader peptide and part of the mouse constant region (heavy entry ends within CH1); also called LILRB2 antibody 6B3) VH: EVQLQESGPELLKPGASMKISCKASGYTFTDDYMNWVKQSHGKSLEWIGDINPNNGGTSYNQKFKGKATLTVDKSSSTAYMELRSLTSEDSAVYYCARGSPWFAYWGQGTLVTVSA VL: DIQMTQTTSSLSASLGDRVTINCRASQDIRNYLSWYQQKPDGTVKLLIYYTSRLHSGVPSRFSGSGSGRDYSLTISNLEQEDIATYFCQQSNTLPWTFGGGTKLEITR	9.02
3B3 (antibody, V domains shown, Entries are printed with leader peptide and part of the mouse constant region; also called LILRB2 antibody 3B3) VH: QVQLQQPGAELVKPGASVKMSCKASDYTFTSYWITWVKKRPGQGLEWIGDIYPGSDTTNYNEKFKNKATLTVDTSSSTAHMQLSSLTSEDSAVYYCTRPLYQGISPWFAYWGQGTLVTVSA VL: NIVMTQSPKSMSMSVGERVTLSCKASENVGTYVSWYQQKPEQSPKLLIYGASNRYTGVPDRFTGSGSATDFTLTISSVQAEDLADYHCGQSYSYPFTFGSGTKLEIKR	8.01
8D2 (antibody, V domains shown, Entries are printed with leader peptide and part of the mouse constant region; also called LILRB2 antibody 8D2) VH: QIQLVQSGPELKKPGETVKISCKASGYTFTTYGMSWVKQAPGKGLKWMGWINTYSGAPAYVDDFKGRFAFSLETSASTAYLQINNLKNEDTATYFCARHFYSGSSYWYFDVWGTGTTVTVSS VL: DIQMTQSPASLSVSVGETVTITCRASENIYSNLAWYQQKQGKSPQLLVYAATNLADGVPSRFSGSGSGTQYSLKINSLQSEDFGSYYCQHFWGTPRTFGGGTKLEIKR	8.43

Continued, values first:

-log(Kd)	Binder
7.82	10D4 (antibody, V domains shown, Entries are printed with leader peptide and part of the mouse constant region; also called LILRB2 antibody 10D4) VH: QVQLQQSDAELVKPGASVKISCKVSGYTFSDHTFHWMKQRPEQGLEWIGYFYPRDGRSKYNEKFRDKATLTADKSSSTAYMQLNSLTSEDSAVYFCTCDGFDYWGQGTTLTVSS VL: DIKMTQSPSSMHASLGERVTITCKASQDINSYLSWFQQKPGKSPKTLIYHADRLVDGVPSRFSGSGSGQDYSLTISSLEYEDMGIYYCLQYDEFPYTFGGGTKLEIKR
8.77	10A8 (antibody, V domains shown, Entries are printed with leader peptide and part of the mouse constant region; also called LILRB2 antibody 10A8) VH: EVQLVESGGDFVKPGGSLKLSCAASGFTFSSYDMSWVRQTPDKRLEWVATIIRGDSYTYYLDSVKGRFTISRDNAKNTLYLQMSSLKSEDTAMYYCARPSYGNSFDYWGQGTTLTVSS VL: DIVMTQSHKFMSTSIGDRVSITCKASQDVNNAVAWYQQKPGQSPKLLIYAASYRYTGVPDRFTGSGSGTDFTFTISSVQAEDLAVYHCQQHYGIPWTFGGGTKLEIKR

Source: patent US20240150462A1 (UNIVERSITY HEALTH NETWORK, published 2024)
